According to US20090202520A1:

Target: serum amyloid P (SAP) (human), P02743
Test: SPR (Biacore X100), SAP on CM5 chip, soluble receptor flowed, single cycle kinetics, KD = Kd/Ka
Details: remark: other sources report otherwise

Chain of serum amyloid P (SAP) (human), P02743 (P02743 20-223): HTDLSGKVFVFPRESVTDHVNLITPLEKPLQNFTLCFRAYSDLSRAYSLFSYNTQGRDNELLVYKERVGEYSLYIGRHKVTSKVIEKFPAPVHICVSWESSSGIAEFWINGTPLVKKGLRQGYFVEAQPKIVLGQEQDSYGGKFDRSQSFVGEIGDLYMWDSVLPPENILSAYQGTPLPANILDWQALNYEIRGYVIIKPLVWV

- Kd: 0.4 nM
B1: soluble recombinant FcγRIIIB (sFcγRIIIB), O75015 17-200 (receptor, UniProt O75015 17-200, looked up, not shown: small tags and cut ends)
chain: GMRTEDLPKAVVFLEPQWYSVLEKDSVTLKCQGAYSPEDNSTQWFHNENLISSQASSYFIDAATVNDSGEYRCQTNLSTLSDPVQLEVHIGWLLLQAPRWVFKEEDPIHLRCHSWKNTALHKVTYLQNGKDRKYFHHNSDFHIPKATLKDSGSYFCRGLVGSKNVSSETVNITITQGLAVSTIS
